Positions count from the first letter of the chain named. Values belong to the binder of their own block, whether it stands above or below them.
Molecular target: T1, human Claudin18.2 (human)
T1 construct: also called CLDN18.2
Assay: cell ELISA, Claudin18.2-expressing HEK293T cells
Outline: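 Claudin18.2-expressing HEK293T stable cells (1.5×10⁶ cells/ml in 5% skim milk/PBS blocking buffer) were incubated 1 h at room temperature in plates pre-blocked overnight at 4° C. EC₅₀ was derived by four-parameter curve fit.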

B1: 406G3C4 (antibody, V domains shown)
VH: EIQLQQSGPELMKPGASVRISCKASGYSFISYYIYWVKQSHGKGLEWIGYIDPFNGNTNYNQKFKGKATLTVDRSSSTAYIHLNSLTSEDSAVYYCAIVNGYGRGAMDYWGQGTSVTVSS
VL: QIVLTQSPAIMSASPGEKVTMTCSASSSISYMHWYQQKSGTSPKRWIYDTSKLASGVPARFSGSGSGTSYSLTISSMEAEDAATYYCQQWSSNPLTFGDGTKLELK
notes: mouse hybridoma mAb
- EC50: 12.6 nM

B4: 414A5F7 (antibody, V domains shown)
VH: DVQLVESGGGLVQPGGSRKLSCAASGFTFSSFGMHWVRQAPEKGLEWVAYISSGSSPIYYADTVKGRFTISRDNPKNTLFLQMTSLRSEDTAMYFCARIYYGNSFAYWGQGTLVTVSA
VL: DIVMTQSPSSLTVTAGEKVAMSCKSSQTLLNSGNQKNYLTWYQQKPGQPPKLLLYWASTRESGVPDRFTGSGSGTDFTLTISSVQAEDLAVYYCQNAYYYPLTFGSGTKLELK
notes: mouse hybridoma mAb
- EC50: 15.5 nM

B5: 413B1C9 (antibody, V domains shown)
VH: B4 VH with I99F, A106D, Y107H
VL: B4 VL with A15T, A20S, T28S, L30F, S32R, N37S, L54I, A97N, Y99I, S106A
notes: mouse hybridoma mAb
- EC50: 24.6 nM

B6: 423B2B5 (antibody, V domains shown)
VH: B4 VH with A61S, T84S, A106D, Y107H
VL: B4 VL with A20T, S22N, T28S, L54I, A97D, Y99S, S106A
notes: mouse hybridoma mAb
- EC50: 12.7 nM

B8: 393C2C5 (antibody, V domains shown)
VH: B4 VH with R98T, I99F
VL: B4 VL with A20T, P46S, L54I, Y99S, L102V, L110V
notes: mouse hybridoma mAb
- EC50: 4.45 nM

B9: 410A9A9 (antibody, V domains shown)
VH: B4 VH with R98T, I99F
VL: B4 VL with A20T, P46S, L54I, Y99S, L102V, L110V
notes: mouse hybridoma mAb
- EC50: 6.21 nM

B10: 419B5G9 (antibody, V domains shown)
VH: B4 VH with S31T, S53G, S56T, P57T, Y59F, L86V, F95Y, I99F, Q110P, A118T
VL: B4 VL with A20T, T28S, L52M, L54I, Y99S, S106A
notes: mouse hybridoma mAb
- EC50: 22.5 nM

B11: 418B8B10 (antibody, V domains shown)
VH: B4 VH with A61T, I99F, A106D, Y107H
VL: B4 VL with A20S, T28S, L30F, S32R, N37S, K45R, L54I, A97N, Y99I, S106A
notes: mouse hybridoma mAb
- EC50: 3.17 nM

B12: 420D5H5 (antibody, V domains shown)
VH: DVQLVESGGGLVQPGGSRKLSCAASGFTLSGFGMHWIRQTPEKGLEWVAYISSGSRPIYYVDTVEGRFTISRDNPKNTLFLQMTSLRSEDTAMYFCARFYYGNSFDHWGQGTLVTVSS
VL: B4 VL with S10F, A20T, T28S, L54I, S82R, S83G, V91L, Y99S, Y100F, S106A
notes: mouse hybridoma mAb
- EC50: 7.03 nM

B15: 411G12G1 (antibody, V domains shown)
VH: B12 VH with L29F, T40A, V61A, E65K, S118A
VL: B4 VL with S10F, A20T, T28S, L54I, A97D, Y99S, Y100F, S106A
notes: mouse hybridoma mAb
- EC50: 3.47 nM

B24: 413C12F8 (antibody, V domains shown)
VH: B12 VH with L29F, M34V, S52G, V61A, E65K, S118A
VL: DIVMTQSPSFLTVTAGEKVTMNCRSSQSLLNSGNQKNYLTWYQQRPGQPPKLLIYWASTRESGVPDRFTGSGSGTDFTLTISSVQAEDLALYYCQNAYSFPLTFGAGTKLELK
notes: mouse hybridoma mAb
- EC50: 3.55 nM

B25: 414H6G2 (antibody, V domains shown)
VH: B12 VH with L29F, P41A, V61A, E65Q, S118A
VL: B24 VL with N22S, R24K, R45K
notes: mouse hybridoma mAb
- EC50: 12 nM

B29: 410D9G2 (antibody, V domains shown)
VH: B12 VH with L29F, V61A, E65Q
VL: B24 VL with N22S, R24K, R45K
notes: mouse hybridoma mAb
- EC50: 4.33 nM

B31: 405G8F11 (antibody, V domains shown)
VH: B4 VH with A23V, A24T, T84S, I99F
VL: B24 VL with F10S, R24K, R45K, P46L, I54M, L91V, Y93F, N96S, Y98F, F100Y
notes: mouse hybridoma mAb
- EC50: ~91.2 nM

B32: 423C10E1 (antibody, V domains shown)
VH: DVQLVESGGGLVQPGGSRKLSCVTSGFTFSSFGMHWVRQAPEKGLEWVAFISGGGSPIFYADSVKGRFTVSRDNPKNTLFLQMTGLRSEDTAMYFCARFYFGNSFAYWGQGTLVTVSA
VL: DIVMTQSPSSLTVTAGEKVTMNCRSSQSLFNSGNQKNYLTWYQQKPGQSPKLLIYWASTRESGVPVRFTGSGSGTDFTLTISSVQAEDLAVYYCQTSFNYPLTFGPGTKLELK
notes: mouse hybridoma mAb
- EC50: 2.46 nM

B34: 410H6H3 (antibody, V domains shown)
VH: B4 VH with Q3L, F32S, S56N, P57T, V64L, F95Y, A106V
VL: B4 VL with A20I, T28S, L52M, L54I, T69R, A97N, S106T, E111A
notes: mouse hybridoma mAb
- EC50: 45.5 nM

B35: 412B6E4 (antibody, V domains shown)
VH: B4 VH with M34V, P57T, D62H, T63S, R87G, M93T, F95Y, I99F
VL: B4 VL with A20T, T28S, L52M, L54I, Y99T, S106A, K109R
notes: mouse hybridoma mAb
- EC50: 33.1 nM

B36: 416F12F3 (antibody, V domains shown)
VH: B4 VH with P57T, D62H, T63S, R87G, F95Y, I99F
VL: B4 VL with A20T, M21L, T28S, L52M, L54I, Y99T, S106A, K109R
notes: mouse hybridoma mAb
- EC50: 14.7 nM

B37: 392C2F10 (antibody, V domains shown)
VH: EVQLQQSGPELVKPGASMKISCKASGYSFTGYTMNWVKQSLGKNLEWIGLINPFNGGTTYNQKFKGKATLTVDKSSSTAYMELLSLTSDDSAVYYCTRGDYWGQGTTLTVSS
VL: DIVMTQSPSSLTVTAGEKVTMSCKSSQSLLNSGNQKNYLTWYQQKPGQPPKLLIYWASTRESGVPDRFAGSGSGTDFTLTISSVQAEDLAVYYCQSDYSYPTFGAGTKLELK
notes: mouse hybridoma mAb
- EC50: 350 nM

Results, then the binder that gave them:

- EC50: 2.19 nM
B2: 409G10G6 (antibody, V domains shown)
VH: B12 VH with L29F, G54D, V61A, E65K, A97G, S118A
VL: B24 VL with M21L, N22S, K36R, R45K, L89R, A106T, K113R
notes: mouse hybridoma mAb

- EC50: 2.53 nM
B3: 422F4B6 (antibody, V domains shown)
VH: B4 VH with T28S, T69I
VL: B4 VL with A20T, L54I, Y99S
notes: mouse hybridoma mAb

- EC50: 2.39 nM
B7: 407H12E6 (antibody, V domains shown)
VH: B4 VH with F29V, M93I, I99F, A106D, Y107H
VL: DIVMTQSPSSLTVTTGEKVTMSCKSSQSLLNSGNQKNYLTWYQQKPGQSPKLLIYWASTRESGVPDRFTGSGSGTDFTLTISSVQTEDLAVYFCQNNYFFPLTFGAGTKLELK
notes: mouse hybridoma mAb

- EC50: 2.61 nM
B13: 420F12G8 (antibody, V domains shown)
VH: B12 VH with T28A, L29F, V61A, E65K, A97V, S118A
VL: B24 VL with N22T, S28N, R45K, Y55S, A86P, L102F
notes: mouse hybridoma mAb

- EC50: 2.61 nM
B14: 419A5F3 (antibody, V domains shown)
VH: B12 VH with L29F, G54D, V61A, E65K, A97G, S118A
VL: B24 VL with M21L, N22S, K36R, R45K, L89R, A106T, K113R
notes: mouse hybridoma mAb

- EC50: 1.92 nM
B16: 425C6D3 (antibody, V domains shown)
VH: B12 VH with L29F, V61A, E65Q
VL: B24 VL with N22S, R24K, R45K
notes: mouse hybridoma mAb

- EC50: 1.88 nM
B17: 422E8F9 (antibody, V domains shown)
VH: B12 VH with L29F, V61A, E65Q
VL: B24 VL with N22S, R24K, R45K
notes: mouse hybridoma mAb

- EC50: ~2.6 nM
B18: 411A6E3 (antibody, V domains shown)
VH: B12 VH with L29F, G31D, V61A, E65K, A97V, Y101F, S118A
VL: B24 VL with N22T, S28N, Q35L, R45K, Y55S, A86P
notes: mouse hybridoma mAb

- EC50: 2.39 nM
B19: 420G10G3 (antibody, V domains shown)
VH: B12 VH with L29F, P41A, V61A, E65Q, S118A
VL: B24 VL with N22S, R24K, R45K
notes: mouse hybridoma mAb

- EC50: 2.14 nM
B20: 426D9F6 (antibody, V domains shown)
VH: B12 VH with L29F, V61A, E65K, S118A
VL: B24 VL with N22S, R24K, K36R, R45K, I81V
notes: mouse hybridoma mAb

- EC50: 2.56 nM
B21: 430B3F1 (antibody, V domains shown)
VH: B12 VH with L29F, S55G, V61A, E65Q, V116I
VL: B24 VL with N22S, R24K, R45K
notes: mouse hybridoma mAb

- EC50: 2.47 nM
B22: 421H4G3 (antibody, V domains shown)
VH: B12 VH with T28S, L29F, M34L, V61A, E65K, Y101F, S118T
VL: B24 VL with N22S, K36R, R45K, S82N
notes: mouse hybridoma mAb

- EC50: 2.61 nM
B23: 425B3D5 (antibody, V domains shown)
VH: B12 VH with L29F, V61A, E65Q
VL: B24 VL with N22S, R24K, R45K
notes: mouse hybridoma mAb

- EC50: 2.45 nM
B26: 411G3E10 (antibody, V domains shown)
VH: B12 VH with L29F, V61A, E65K, S118A
VL: B24 VL with R45K
notes: mouse hybridoma mAb

- EC50: 2.33 nM
B27: 419A10D4 (antibody, V domains shown)
VH: B12 VH with L29F, V61A, E65K, S118A
VL: B24 VL with N22S, R24K, K36R, R45K, I81V
notes: mouse hybridoma mAb

- EC50: 1.78 nM
B28: 426H6E11 (antibody, V domains shown)
VH: B12 VH with L29F, V61A, E65Q
VL: B24 VL with S7F, N22S, R24K, S28T, R45K, K109N
notes: mouse hybridoma mAb

- EC50: 2.85 nM
B30: 411B4G4 (antibody, V domains shown)
VH: B12 VH with L29F, M34L, V61A, E65K, S118A
VL: B24 VL with N22S, K36R, R45K
notes: mouse hybridoma mAb

- EC50: 2.94 nM
B33: 420H7E6 (antibody, V domains shown)
VH: B32 VH with V37I
VL: B32 VL with T5A, S49P, S97G, N99S
notes: mouse hybridoma mAb
